Where two headings read alike, the source gives them in different places.
Columns and labels:
[1] = test system: TβRI GS region peptide (F-Ahx-YDMTTpSGpSGpSGLPLL); experiment: Fluorescence anisotropy binding to TβRI GS peptide
Source text: However, this tentative assignment has been confirmed neither by a high-resolution structure of the Smad2-TβRI complex nor by a quantitative and systematic binding study, leaving uncertainty about the exact nature of the Smad2-TβRI-binding interface. Since the L3 loop is a part of the newly identified PI(4,5)P2-binding site, we checked if these PI(4,5)P2-binding residues are also involved in the Smad2-TβRI interaction using two fluorescein-labeled synthetic peptides derived from the GS region (i.e., GS peptide: fluorescein-aminohexanoyl (F-Ahx)-YDMTTpSGpSGpSGLPLL) and the L45 loop (i.e., L45 peptide: F-Ahx-ADNKDNGT), respectively. In particular, the GS peptide represents the GS motif triply phosphorylated by TβRII. We then measured binding to Smad2 WT and mutants to these peptides by fluorescence anisotropy according to our established protocol ([21]). […] We thus primarily used the GS peptide to assess the effects of mutations on the Smad2-TβRI interaction. […] They also yielded distinct structural variants for further functional studies. Specifically, W422A and Y426A could serve as specific PI(4,5)P2 binding-compromised mutants and K420A as a predominantly TβRI binding-compromised mutant. R427A/R428A could also serve as a PI(4,5)P2 and TβRI binding-compromised mutant, whereas E425K as a PI(4,5)P2 and TβRI binding-enhanced mutant.
Figure 3 Affinity of Smad2 WT and mutants for TβRI-derived peptides determined by fluorescence anisotropy.A, binding of Smad2 WT (black), W422A (red), Y420A (cyan), R427A/R428A (green), K420A (blue), and E425K (orange) to the GS peptide (F-Ahx-YDMTTpSGpSGpSGLPLL). […] B, binding of Smad2 WT (black), W422A (red), Y420A (cyan), R427A/R428A (green), K420A (blue), and E425K (orange) to the L45 loop peptide (F-Ahx-DNKDNGT). C, effects of 50 μM POPC/POPS/PI(4,5)P2 (77:20:3) LUVs on binding of Smad2 to the GS peptide. The presence of vesicles (orange) raises the Kd value from 20 ± 6 to 60 ± 7 nM. The peptide concentration was fixed at 2.5 nM, and the Smad2 concentration was varied from 0 to 150 μM. The experimentally observed anisotropy (A) values were normalized (Anorm) using the equation: Anorm = (A − Amin)/(Amax − Amin) where Amax and Amin are maximal and minimal A values, respectively, for each measurement. The plots of Anormversus [Smad2] were analyzed by the nonlinear least-squares analysis using the equation: Anorm = 1/(1 + Kd/[Smad2]).
The fluorescein-6-aminohexanoyl (F-Ahx)-labeled TβRI GS region peptide (F-Ahx-YDMTTpSGpSGpSGLPLL) was dissolved in dimethyl sulfoxide to yield 1 mg/ml stock solution, F-Ahx-labeled TβRI L45 loop region peptide (F-Ahx-ADNKDNGT) was dissolved in a 3:1 mixture of water and acetonitrile to yield 2.5 mg/ml stock solution. Both peptide solutions were diluted to 1 to 10 μM with 20 mM Tris buffer, pH 7.9, containing 160 mM NaCl for binding studies. In total, 300 μl of the Smad2 (WT or mutant) solution (0–250 μM) was added to a series of 1.5 ml microcentrifuge containing the peptide solution (2.5 μM). After 10-min incubation in the dark, the mixture was transferred to a quartz cuvette with 2-mm path length and fluorescence anisotropy (r) was measured with excitation and emission wavelengths set at 485 and 535 nm, respectively, using Horiba Flurolog-3 spectrofluorometer. Since Po >> Pepo under our conditions, the Kd for the Smad2-peptide binding was determined by the nonlinear least-squares analysis of the binding isotherm using the Equation 1:(1) Pepbound/Pep0=Δr/Δrmax=1/1+kd/P0 where Pepbound, Pep0, and P0 indicate the concentration of bound peptide, total peptide, and total Smad2, respectively, and Δr and Δrmax are the anisotropy change for each P0 and the maximal Δr, respectively.

[2] = test system: HeLa cells; experiment: Nuclear translocation of EGFP-Smad2; format: cell-based
Protocol: Two separate gels were used to accommodate all mutants. An empty vector transfection (vehicle) was used for a negative control for each gel. Glyceraldehyde 3-phosphate dehydrogenase (GAPDH) was used as a gel loading control. Data in A and B are quantified in Fig. S3A. C, TGF-β stimulated (10 ng/ml for 1 h) nuclear translocation of mouse EGFP-WT, -K420A, -W422A, -E425K, -Y426A, and -R427A/R428A transfected into HeLa cells whose endogenous Smad2 was suppressed by siRNA. For Smad2-WT, the effect of PI(4,5)P2 depletion was measured. Arrows indicate nuclear accumulation of EGFP-WT and EGFP-E425K. Scale bars indicate 10 μm. D, quantification of (C). (Inuc/Icyto) was calculated from total nuclear and cytosolic fluorescence intensity values. Blank and black bars indicate values before and after TGF-β stimulation. Error bars indicate S.D. values from >3 measurements (n = 10). E, Smad2 transcriptional activity measured by the luciferase assay. Blank and black bars indicate values before and after TGF-β stimulation. Error bars indicate S.D. values from >3 measurements (n = 10).
The ratio of nuclear to cytoplasmic protein was calculated from the fluorescence intensity of nucleus (Inuc) and the cytoplasm (Fcyto) in cross-section images of cells using the line profile function of Image-Pro Plus software (Media Cybernetics). Briefly, at least five different lines were drawn across the cross-sectional image of each cell and the average Inuc and ICyto values were calculated along the lines. Typically, more than ten cell images were analyzed for each data set to determine the average and SD values.

[3] = fluorescence anisotropy, 20 mM Tris, pH 7.9, 160 mM NaCl, 10-min incubation, average ±S.D., n = 3, read-out: Kd for peptide binding, GS peptide

| Molecule | GS peptide affinity relative to WT ([1]; fluorescence anisotropy) | Kd [1, 3] | nuclear transport after TGF-β stimulation ([2]; HeLa cells with endogenous Smad2 suppressed, 10 ng/ml TGF-β for 1 h) | effect of PI(4,5)P2 LUVs on binding to the GS peptide ([1]; 50 μM POPC/POPS/PI(4,5)P2 (77:20:3) LUVs) | binding to GS peptide relative to L45 peptide ([1]; fluorescence anisotropy, Kd comparison) | Kd ([1]; with 50 μM POPC/POPS/PI(4,5)P2 (77:20:3) LUVs, fluorescence anisotropy, Smad2 0 to 150 μM, read-out: Kd, GS peptide, in the presence of vesicles) | Kd ([1]; without LUVs, fluorescence anisotropy, Smad2 0 to 150 μM, read-out: Kd, GS peptide, without vesicles) | nuclear transport after PI(4,5)P2 depletion ([2]; HeLa cells, PI(4,5)P2 depletion, TGF-β 10 ng/ml for 1 h) |
| --- | --- | --- | --- | --- | --- | --- | --- | --- |
| Smad2-E425K: charge-reversal mutant of full-length Smad2; PI(4,5)P2 and TβRI binding-enhanced (protein, left off: His6, N-terminal, state not stated) MSSILPFTPPVVKRLLGWKKSAGGSGGAGGGEQNGQEEKWCEKAVKSLVKKLKKTGRLDELEKAITTQNCNTKCVTIPSTCSEIWGLSTANTVDQWDTTGLYSFSEQTRSLDGRLQVSHRKGLPHVIYCRLWRWPDLHSHHELKAIENCEYAFNLKKDEVCVNPYHYQRVETPVLPPVLVPRHTEILTELPPLDDYTHSIPENTNFPAGIEPQSNYIPETPPPGYISEDGETSDQQLNQSMDTGSPAELSPTTLSPVNHSLDLQPVTYSEPAFWCSIAYYELNQRVGETFHASQPSLTVDGFTDPSNSERFCLGLLSNVNRNATVEMTRRHIGRGVRLYYIGGEVFAECLSDSAIFVQSPNCNQRYGWHPATVCKIPPGCNLKIFNNQEFAALLAQSVNQGFEAVYQLTRMCTIRMSFVKGWGAKYRRQTVTSTPCWIELHLNGPLQWLDKVLTQMGSPSVRCSSMS | twofold higher affinity | 8 ± 0.8 µM | excessively transported to the nucleus | – | – | – | – | – |
| Smad2 WT: bacterially expressed full-length Smad2 wild-type (protein, left off: His6, N-terminal, state not stated, bacterially expressed full-length Smad2 wild-type) MSSILPFTPPVVKRLLGWKKSAGGSGGAGGGEQNGQEEKWCEKAVKSLVKKLKKTGRLDELEKAITTQNCNTKCVTIPSTCSEIWGLSTANTVDQWDTTGLYSFSEQTRSLDGRLQVSHRKGLPHVIYCRLWRWPDLHSHHELKAIENCEYAFNLKKDEVCVNPYHYQRVETPVLPPVLVPRHTEILTELPPLDDYTHSIPENTNFPAGIEPQSNYIPETPPPGYISEDGETSDQQLNQSMDTGSPAELSPTTLSPVNHSLDLQPVTYSEPAFWCSIAYYELNQRVGETFHASQPSLTVDGFTDPSNSERFCLGLLSNVNRNATVEMTRRHIGRGVRLYYIGGEVFAECLSDSAIFVQSPNCNQRYGWHPATVCKIPPGCNLKIFNNQEFAALLAQSVNQGFEAVYQLTRMCTIRMSFVKGWGAEYRRQTVTSTPCWIELHLNGPLQWLDKVLTQMGSPSVRCSSMS | – | 20 ± 6 µM | – | significantly interfered with binding of Smad2 to the GS peptide | 3.3 times | 0.06 ± 0.007 µM | 0.02 ± 0.006 µM | abrogated the nuclear transport of Smad2 WT |

Source: article PMC8567202, “Phosphoinositide-binding activity of Smad2 is essential for its function in TGF-β signaling” (The Journal of Biological Chemistry, 2021)
